Assays:
recombinant human GDF-8 = biological target: T1, recombinant human GDF-8 (Homo sapiens, UniProt O14793); assay: MSD platform-based binding assay to plate-bound GDF-8; conditions: 3× serial dilutions of culture supernatants of HEK293T cells transfected with mmRNA constructs
T1 sequence (O14793 267-375): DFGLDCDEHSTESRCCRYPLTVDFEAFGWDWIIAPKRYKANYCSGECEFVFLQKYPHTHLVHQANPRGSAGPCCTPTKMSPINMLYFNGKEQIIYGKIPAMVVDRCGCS
Description: (§1) The binding by a recombinant human ACVR2B-Fc fusion protein to GDF-8 (also known as myostatin) was characterized using a Meso Scale Discovery (MSD) platform-based assay. Briefly, GDF-8 was coated on a plate and 8× serial dilutions of the purified recombinant human ACVR2B-Fc fusion protein were also added in a series of wells. The protein captured by the plate-bound GDF-8 was detected using an anti-human Fc antibody and a SULFO-TAG conjugated secondary antibody.
(§2) The binding to GDF-8 by the GLP-1-Fc-ACVR2B fusion protein produced using the mmRNA constructs was investigated using a Meso Scale Discovery (MSD) platform-based assay. Briefly, HEK293T cells were transfected with each mRNA construct using lipofectamine 2000, and culture supernatants were collected after 48 hours. GDF-8 was coated on a plate, and 3× serial dilutions of the culture supernatants were added to the plate for capture by the plate-bound GDF-8. The protein captured by the plate-bound GDF-8 was detected using an anti-human Fc antibody and a SULFO-TAG conjugated secondary antibody. The MSD signals generated by the culture supernatants of HEK293T cells transfected with different mmRNA constructs were plotted as a line graph.

[1] = biological target: T2, recombinant human Activin A (Homo sapiens, UniProt P08476); assay: MSD platform-based binding assay to plate-bound Activin A; conditions: 3× serial dilutions of culture supernatants of HEK293T cells transfected with mmRNA constructs
T2 sequence (P08476 311-426): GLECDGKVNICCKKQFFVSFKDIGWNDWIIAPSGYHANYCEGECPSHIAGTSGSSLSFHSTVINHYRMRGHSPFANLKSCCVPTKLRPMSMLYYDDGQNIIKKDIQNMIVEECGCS
Description: as §1, with “to activin A” for “to GDF-8”, “as Inhibin beta A)” for “as myostatin)”, “Briefly, Activin A” for “Briefly, GDF-8”, “plate-bound Activin A” for “plate-bound GDF-8”
as §2, with “Activin A” for “GDF-8”, “Activin A.” for “GDF-8.”

B1: GLP-1-Fc-ACVR2B chimeric protein: GLP-1 fused to ACVR2B extracellular domain via a hinge-CH2-CH3 Fc domain derived from IgG1; SEQ ID NO: 154 (protein)
chain: SGRGEAETRECIYYNANWELERTNQSGLERCEGEQDKRLHCYASWRNSSGTIELVKKGCWLDDFNCYDRQECVATEENPQVYFCCCEGNFCNERFTHLPEAGGPEVTYEPPPTAPTLLT
**Q.** With B1 as the molecule, how does the “binding to GDF-8” value (recombinant human GDF-8) read?
**A.** binds to the human GDF-8

**Q.** And the “binding to Activin A” value [1]?
**A.** binds to the human Activin A

Source: US20250066446A1, “FUSION PROTEINS FOR THE TREATMENT OF CARDIOMETABOLIC DISEASES” (Shattuck Labs, Inc., priority 2022, published 2025)
